Blank lines part the entries; values can stand above or below the binder they belong to.
Assays:
[1] = target: T1, monkey (cyno) GPRC5D, on 293T cells (monkey (cyno)); experiment: FACS on 293T cells expressing monkey GPRC5D
T1 construct: whole, on cells; also called monkey GPRC5D
Description: (§1) According to the method described in Example 4, the binding between the culture supernatant of the hybridoma cells and monkey GPRC5D was detected, except that the human GPRC5D-expressing cells were replaced with 293T cells expressing monkey GPRC5D (Kyinno, catalog number KC-1586).

[2] = target: T1, monkey (cyno) GPRC5D, on 293T cells; experiment: FACS on 293T cells expressing monkey (cyno) GPRC5D (run with 9D7(hz))
Procedure: (§2) 100 μl of FACS buffer was then added to each FACS tube for resuspension. 5 μl of PE-labeled, anti-murine Fc tagged secondary antibody (Biolegend, catalog number 409304) was added according to instructions, and incubated at 4° C. in the dark for 30 mins. Then 1 ml of FACS buffer was added, and centrifuged at 1200 rpm at room temperature for 5 mins. The supernatant was discarded followed by washing three times.
(§3) The experimental process was as described in Example 4. […] Control tube 1 (no antibody and secondary antibody, adding only cell suspension) and Control tube 2 (no antibody, adding only cell suspension and secondary antibody) were included.

[3] = target: T1, monkey (cyno) GPRC5D, on 293T cells; experiment: FACS on 293T cells expressing monkey (cyno) GPRC5D (run with 24F5(hz))
Procedure: as §2, §3

[4] = target: T1, monkey (cyno) GPRC5D, on 293T cells; experiment: FACS on 293T cells expressing monkey (cyno) GPRC5D (run with 6E97(hz))
Procedure: as §2, §3

[5] = target: T2, human GPRC5B, on 293T cells (human, UniProt Q9NZH0 29-403); experiment: FACS on 293T-GPRC5B cells, antibody at 2 µg/mL; control tubes 8.55 and 8.26
T2 construct: whole, on cells; also called 293T-GPRC5B
Procedure: as §2
(§4) The experimental process was as described in Example 4, cells expressing other members of G protein-coupled receptor class C group 5 as follows were used: 293T cells expressing human GPRC5A, 293T-GPRC5A (Kyinno, catalog number KC-1888), 293T cells expressing human GPRC5B, 293T-GPRC5B (Kyinno, catalog number KC-1854), and 293T cells expressing human GPRC5C, 293T-GPRC5C (Kyinno, catalog number KC-1889). […] Control tube 1 (no antibody and secondary antibody, adding only cell suspension) and Control tube 2 (no antibody, adding only cell suspension and secondary antibody) were included.

[6] = target: T3, human GPRC5C, on 293T cells (human, UniProt Q9NQ84 24-441); experiment: FACS on 293T-GPRC5C cells, antibody at 2 µg/mL; control tubes 8.86 and 8.73
T3 construct: whole, on cells; also called 293T-GPRC5C
Procedure: as §2, §4

[7] = target: T4, human GPRC5D (G protein-coupled receptor class C group 5 member D), on cells (human, UniProt Q9NZD1 1-345); experiment: FACS, hybridoma supernatant on MM1R cells
T4 construct: whole, on cells; also called hGPRC5D

[8] = target: T4, human GPRC5D (G protein-coupled …); experiment: FACS, hybridoma supernatant on OPM2 cells
[9] = target: T5, Nalm6 cells (NALM6, Kyinno, catalog number KC-0626); experiment: FACS, hybridoma supernatant on Nalm6 cells
T5 construct: Kept apart from human GPRC5D so that the low MFI values on this line are not laid to the GPRC5D pair

[10] = target: T4, human GPRC5D (G protein-coupled …); experiment: FACS, hybridoma supernatant on NCI-H929 cells
Procedure: as §2

[11] = target: T4, human GPRC5D (G protein-coupled …); experiment: FACS, hybridoma supernatant on 293T cells expressing human GPRC5D
Procedure: (§5) 293T cells expressing human GPRC5D as described above was prepared into a suspension at concentration of 1×10⁵ cells/ml in PBS containing 2% FBS.
(§6) 1 ml of FACS buffer was added to each FACS tube, centrifuged at 1200 rpm for 5 mins. The supernatant was discarded followed by washing three times. At the same time, control tube 1 (no supernatant of the culture and the secondary antibody mentioned below, adding only cell suspension) and control tube 2 (no supernatant of the culture, adding only cell suspension and the secondary antibody mentioned below) were included.
as §2

[12] = target: T1, monkey (cyno) GPRC5D, on 293T cells; experiment: FACS, hybridoma supernatant on 293T cells expressing monkey GPRC5D
Description: as §1

[13] = target: T4, human GPRC5D (G protein-coupled …); experiment: cell ELISA, hybridoma supernatant on fixed BXPC-3 cells expressing human GPRC5D
Procedure: BXPC-3 cells expressing human GPRC5D (Kyinno, catalog number KC-1717) were prepared into a suspension at concentration of 1×10⁵ cells/ml in PBS containing 2% FBS. The suspension was added to a 96-well plate at 100 μl/well and cultured overnight at 37° C. The wells were cleared of their contents and washed three times with washing solution. 80 μl of 4% tissue fixative (Beyotime, catalog number P0099) was added to each well followed by fixing at room temperature for 15 min, washing twice with PBS and drying. 250 μl of blocking solution containing 2% BSA was added to each well followed by incubation at 37° C. for 1 hr and washing three times with PBS. 50-100 μl of the supernatant of the hybridoma cell culture was added to each well. A positive control (adding serum from fusion mice), a negative control (adding serum from normal mice) and a blank control (adding culture medium) were included. The wells were incubated at 37° C. for 1-2 hrs, washed, and dried. Then, the enzyme-labeled secondary antibody, HRP-labeled goat anti-mouse IgG (SIGMA, catalog number A9044-2 ml) was added at dilution of 1:10000 and 50-100 μl/well. The wells were incubated at 37° C. for 1-2 hrs, washed, and dried. 50-100 μl of freshly prepared developing solution TMB was added to each well and incubated at 37° C. for 10-30 mins.
2 mol/L H₂SO₄ was added to terminate the reaction, and the OD value was read on an enzyme-linked immunosorbent reader.

[14] = target: T4, human GPRC5D (G protein-coupled …); experiment: FACS, hybridoma supernatant on 293T cells expressing human GPRC5D; remark: listed apart in the source
Procedure: as §5, §6, §2

[15] = target: T4, human GPRC5D (G protein-coupled …); experiment: as above; remark: listed apart in the source
Procedure: as §5, §6, §2

[16] = target: T4, human GPRC5D (G protein-coupled …); experiment: as above; remark: listed apart in the source
Procedure: as §5, §6, §2

[17] = target: T1, monkey (cyno) GPRC5D, on 293T cells; experiment: FACS, hybridoma supernatant on 293T cells expressing monkey GPRC5D; remark: listed apart in the source
Description: as §1

T4 sequence (Q9NZD1 whole entry): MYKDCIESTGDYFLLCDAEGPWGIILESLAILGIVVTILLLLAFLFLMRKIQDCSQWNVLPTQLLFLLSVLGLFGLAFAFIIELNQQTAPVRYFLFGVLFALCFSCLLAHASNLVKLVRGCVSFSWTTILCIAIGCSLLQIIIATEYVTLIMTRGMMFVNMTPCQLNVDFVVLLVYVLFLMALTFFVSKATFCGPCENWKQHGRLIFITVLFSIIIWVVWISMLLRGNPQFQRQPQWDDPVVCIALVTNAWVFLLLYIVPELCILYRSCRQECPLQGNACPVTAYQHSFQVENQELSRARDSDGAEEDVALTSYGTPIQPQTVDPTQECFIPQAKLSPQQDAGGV
T3 sequence (Q9NQ84 24-441): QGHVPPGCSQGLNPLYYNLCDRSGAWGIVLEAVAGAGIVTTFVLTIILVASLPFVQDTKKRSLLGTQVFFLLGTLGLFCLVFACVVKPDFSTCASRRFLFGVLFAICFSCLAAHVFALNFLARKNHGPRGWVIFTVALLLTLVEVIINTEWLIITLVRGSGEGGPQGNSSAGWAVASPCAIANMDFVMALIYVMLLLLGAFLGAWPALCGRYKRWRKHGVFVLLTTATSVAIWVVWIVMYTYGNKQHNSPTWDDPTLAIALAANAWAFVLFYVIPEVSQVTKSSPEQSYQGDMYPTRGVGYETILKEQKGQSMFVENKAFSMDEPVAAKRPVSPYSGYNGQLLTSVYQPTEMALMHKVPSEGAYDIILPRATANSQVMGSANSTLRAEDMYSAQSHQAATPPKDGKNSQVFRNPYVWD
T2 sequence (Q9NZH0 29-403): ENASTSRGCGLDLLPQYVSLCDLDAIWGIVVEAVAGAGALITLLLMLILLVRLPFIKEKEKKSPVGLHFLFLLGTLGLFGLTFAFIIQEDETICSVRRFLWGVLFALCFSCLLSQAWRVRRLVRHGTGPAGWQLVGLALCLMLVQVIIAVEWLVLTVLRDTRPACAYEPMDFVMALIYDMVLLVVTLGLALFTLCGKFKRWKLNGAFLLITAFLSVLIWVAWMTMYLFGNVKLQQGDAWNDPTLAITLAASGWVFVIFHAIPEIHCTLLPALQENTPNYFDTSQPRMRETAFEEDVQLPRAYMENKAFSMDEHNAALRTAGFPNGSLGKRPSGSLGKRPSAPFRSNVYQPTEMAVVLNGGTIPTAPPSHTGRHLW

B1: GPRC5D×CD3 JNJ (anti-hGPRC5D×CD3 bispecific antibody built with the GPRC5D-targeting and CD3-targeting domains of Talquetamab, JNJ-64407564) (bispecific antibody, human IgG1, kappa, lambda)
heavy 1: QVQLVQSGAEVKKPGASVKVSCKASGYSFTGYTMNWVRQAPGQGLEWMGLINPYNSDTNYAQKLQGRVTMTTDTSTSTAYMELRSLRSDDTAVYYCARVALRVALDYWGQGTLVTVSSASTKGPSVFPLAPSSKSTSGGTAALGCLVKDYFPEPVTVSWNSGALTSGVHTFPAVLQSSGLYSLSSVVTVPSSSLGTQTYICNVNHKPSNTKVDKRVEPKSCDKTHTCPPCPAPPAAGPSVFLFPPKPKDTLMISRTPEVTCVVVDVSHEDPEVKFNWYVDGVEVHNAKTKPREEQYNSTYRVVSVLTVLHQDWLNGKEYKCKVSNKALAAPIEKTISKAKGQPREPQVYTLPPCREEMTKNQVSLWCLVKGFYPSDIAVEWESNGQPENNYKTTPPVLDSDGSFLLYSKLTVDKSRWQQGNVFSCSVMHEALHNHYTQKSLSLSPGK
heavy 2: QTVVTQEPSLTVSPGGTVTLTCRSSTGAVTTSNYANWVQQKPGQAPRGLIGGTNKRAPGTPARFSGSLLGGKAALTLSGVQPEDEAEYYCALWYSNLWVFGGGTKLTVLSSASTKGPSVFPLAPSSKSTSGGTAALGCLVEDYFPEPVTVSWNSGALTSGVHTFPAVLQSSGLYSLSSVVTVPSSSLGTQTYICNVNHKPSNTKVDDRVEPKSCDKTHTCPPCPAPPAAGPSVFLFPPKPKDTLMISRTPEVTCVVVDVSHEDPEVKFNWYVDGVEVHNAKTKPREEQYNSTYRVVSVLTVLHQDWLNGKEYKCKVSNKALAAPIEKTISKAKGQPREPQVCTLPPSREEMTKNQVSLSCAVKGFYPSDIAVEWESNGQPENNYKTTPPVLDSDGSFFLVSRLTVDKSRWQQGNVFSCSVMHEALHNHYTQKSLSLSPGK
light 1: DIQMTQSPSSLSASVGDRVTITCKASQNVATHVGWYQQKPGKAPKRLIYSASYRYSGVPSRFSGSGSGTEFTLTISNLQPEDFATYYCQQYNRYPYTFGQGTKLEIKRTVAAPSVFIFPPSDEQLKSGTASVVCLLNNFYPREAKVQWKVDNALQSGNSQESVTEQDSKDSTYSLSSTLTLSKADYEKHKVYACEVTHQGLSSPVTKSFNRGEC
light 2: EVQLVESGGGLVQPGGSLRLSCAASGFTFNTYAMNWVRQAPGKGLEWVARIRSKYNNYATYYAASVKGRFTISRDDSKNSLYLQMNSLKTEDTAVYYCARHGNFGNSYVSWFAYWGQGTLVTVSSGQPKAAPSVTLFPPSSEELQANKATLVCLISDFYPGAVTVAWKADSSPVKAGVETTTPSKQSNNKYAASSYLSLTPEQWKSHRSYSCQVTHEGSTVEKTVAPTECS
notes: used as the positive control antibody throughout; also called Positive control antibody
- EC50 [1]: 13.1 mg/L
- EC50 [2]: 14 mg/L
- EC50 [3]: 4.39 mg/L
- EC50 [4]: 3.27 mg/L
- FACS result [5]: 8.44
- FACS result [6]: 8.72

B2: murine antibody 6E97 (A4 antibody) (antibody, V domains shown)
VH: QVQLKESGPELVKPGASVKISCKASGYTFPYYVIHWVKQKPGQGLEWIGYINPYNDGTKYNEKFKGKAALTSDKSSSTAYMELSSLTSEDSAVYYCARGGVRRYFDYWGQGTTLTVSS
VL: QIVLTQSPSSLSASLGERVSLTCRASQDIGSNLNWLQQEPDGTIKRLISATSSLDSGVPKRFSGSRSGSDYSLTISSLESEDFVDYFCLQYATFPYTFGGGTKLEIK
notes: Tested as hybridoma cell culture supernatant; also called murine anti-6E97
- MFI.Max [7]: 931 MFI
- EC50 [8]: 0.291 mg/L
- MFI.Max [8]: 1080 MFI
- MFI.Max [9]: 62.4 MFI
- MFI.Max [10]: 900 MFI
- EC50 [11]: 0.111 mg/L
- MFI.Max [11]: 9610 MFI
- EC50 [12]: 0.243 mg/L
- MFI.Max [12]: 6290 MFI
- OD value [13]: 1.55 OD

Continued, values first:

- EC50 [14]: 0.788 mg/L
- EC50 [15]: 0.169 mg/L
- EC50 [12]: 12.3 mg/L
- OD value [13]: 0.871 OD
B3: murine antibody 26D1 (A2 antibody) (antibody, V domains shown)
VH: QVQLKQSGAELAGPGASVKMSCKASGYTFTSYTIQWIKQRPGQGLEWIGYIIPSSGYTNYNQKFKDKATLTADKSSNTAYMQLSSLTSEDSAVYYCANNYGNWGFTYWGQGTLVTVSA
VL: DILMTQSQKFMSTSVRDRVSISCKASQNVGSAVTWYQQKPGQSPRLLIYSASNRYTGVPDRFTGSGSGTDFTLTISNVQSEDLADYFCQQYSNYPLTFGGGTKLEIK
notes: Tested as hybridoma cell culture supernatant; also called murine anti-26D1

- EC50 [7]: 0.104 mg/L
- MFI.Max [7]: 554 MFI
- EC50 [8]: 0.177 mg/L
- MFI.Max [8]: 705 MFI
- MFI.Max [9]: 10.8 MFI
- EC50 [10]: 0.021 mg/L
- MFI.Max [10]: 506 MFI
- EC50 [15]: 0.185 mg/L
- EC50 [11]: 0.183 mg/L
- MFI.Max [11]: 9380 MFI
- EC50 [16]: 0.279 mg/L
- EC50 [12]: 0.376 mg/L
- MFI.Max [12]: 5440 MFI
- EC50 [17]: 0.229 mg/L
- OD value [13]: 0.541 OD
B4: murine antibody 9D7 (A1 antibody) (antibody, V domains shown)
VH: QVQLKESGPGLVKPSQSLSLTCTVTGYSITSDYAWNWIRQFPGNKLEWMGYISYSGSATYNPSLKSRISITRDTSKNQFFLQLNSMTTEDTATYYCARGGIAGRGRWGAMDYWGQGTSVTVSS
VL: DIVMTQAQKFMSTSVGDRVSVTCKASQNVGTNVAWYQNKPGQSPKALIYSASYRDSGVPDRFTGRGSGTDFTLTISNVQSEDLAEYFCQQYKSYPLTFGAGTKLELK
notes: Tested as hybridoma cell culture supernatant; also called murine anti-9D7
